According to patent publication US12296018B2, “Albumin binding peptide-drug (AlBiPeD) conjugates and methods of making and using same” (priority 2018, dated 2025):
Several values for one entry are separate records, joined by “and”; a condition that tells them apart may be missing. Equal entries are not always repeated. Entries after “also recorded” stand apart in the source; their conditions may differ.

Experiments:
[1] = biological target: T1, human serum albumin (HSA) (Homo sapiens, UniProt P02768); assay: Isothermal titration calorimetry of ABD-Dox with HSA; format: binding; conditions: ITC, 37° C., PBS
T1 construct: purchased Sigma-Aldrich (St. Louis, MO)
Description: (§1) The gel was stained with SimplyBlue stain according to the manufacturer's instructions and imaged using the Gel Doc imaging system (Bio-Rad, Hercules, CA). Isothermal titration calorimetry was done using a standard volume Nano ITC from TA instruments (Lindon, Utah). […] The calorimetric data were analyzed by NanoAnalyze software (TA instruments, Lindon, UT) and were fit to an independent binding site model to compute the thermodynamic parameters including dissociation constant (KD), binding stoichiometry (n), enthalpy (ΔH), and entropy (ΔS).

[2] = biological target: T1, human serum albumin (HSA); assay: Native-PAGE mobility shift with HSA; format: binding; conditions: 1:1 molar ratio
Description: as §1

[3] = biological target: T2, mouse serum albumin (MSA) (Mus musculus, UniProt P07724); assay: Native-PAGE mobility shift with MSA; format: binding; conditions: 1:1 molar ratio
T2 construct: purchased Sigma-Aldrich (St. Louis, MO)
T2 sequence (P07724 25-608): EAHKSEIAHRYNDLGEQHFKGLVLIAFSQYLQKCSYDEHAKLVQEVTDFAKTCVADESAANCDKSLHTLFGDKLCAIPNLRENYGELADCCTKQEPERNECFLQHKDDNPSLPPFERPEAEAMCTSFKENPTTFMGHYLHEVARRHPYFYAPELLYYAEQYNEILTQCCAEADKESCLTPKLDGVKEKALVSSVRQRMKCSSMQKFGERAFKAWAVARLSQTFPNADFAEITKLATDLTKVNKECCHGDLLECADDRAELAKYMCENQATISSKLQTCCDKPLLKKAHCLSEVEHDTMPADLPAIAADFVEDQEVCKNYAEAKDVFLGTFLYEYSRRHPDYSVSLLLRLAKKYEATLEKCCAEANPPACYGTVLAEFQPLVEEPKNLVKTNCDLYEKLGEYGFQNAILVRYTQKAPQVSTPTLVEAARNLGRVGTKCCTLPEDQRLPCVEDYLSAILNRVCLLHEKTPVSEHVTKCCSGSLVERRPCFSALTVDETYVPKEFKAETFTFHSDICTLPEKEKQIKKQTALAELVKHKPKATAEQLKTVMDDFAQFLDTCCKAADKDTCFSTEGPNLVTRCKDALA
Description: as §1

[4] = pH-dependent Dox release from ABD-Dox conjugate (size exclusion HPLC); format: physicochemical
Description: Drug release Dox release from the ABD-Dox conjugate was measured at pH 7.4 and 5.0, corresponding to the physiological pH and late endosomal pH, respectively. ABD-Dox in PBS (400 μM Dox Equiv.) was diluted with an equal volume of either 0.1 M Na—PO4, pH 7.4 buffer, 0.1 M Na-acetate, pH 5.0 buffer, incubated at 37° C. for 0, 0.25, 0.5, 1, 2, 4, 6, and 24 h, and neutralized using an equal volume of 0.1 M Na—PO4, pH 7.4 buffer. Samples were then analyzed by size exclusion HPLC using the same chromatography conditions as described above for the characterization of Dox conjugates and the percentage of released Dox was calculated by integrating the area under the peak corresponding to unbound Dox. The cumulative percent released Dox (F %, released) versus time was fit to a first order release model: F %, released=a[1−exp(−ln(2)t/t1/2)] where t is the time (h) after incubation, tia is the half-maximal release time (h), and a (%) is the maximum extent of drug release, using GraphPad Prism software (GraphPad, San Diego, CA).

[5] = tested on: MIA PaCa-2 cells; assay: In vitro cytotoxicity (MTS, 72 h) MIA PaCa-2; format: cell-based, human; conditions: 72 h incubation, Dox Equiv. concentration
Description: (§2) In vitro cytotoxicity C26 murine colon carcinoma cells and three different pancreatic cancer cell lines, BxPC-3, AsPC-1, and MIA PaCa-2, were used to study the in vitro cytotoxicity of ABD-DOX and Dox. Cells were cultured and grown as monolayers at 37° C. with C02 in a humidified incubator and were passaged at ˜80% confluency using 0.05% trypsin-EDTA (Invitrogen, Carlsbad, CA). C26, BxPC-3, AsPC-1, and MIA PaCa-2 cells were seeded in 96-well plates (5,000 cells/well) and incubated overnight. Three-fold serial dilutions of drug were then added to the wells in triplicate and also to control wells (media with no cells) to correct for the background Dox absorbance. After 72 h treatment, 20 μL MTS reagent was added to each well and was incubated for 3 h at 37° C., and the absorbance at 490 nm was measured using a Victor3 plate reader (Perkin Elmer, Boston, MA). Cell viability (%) was defined as the percentage of the absorbance of the drug-treated cells relative to buffer-treated cells and IC50 values were determined using logistic non-linear regression analysis with GraphPad Prism software. The IC50 was defined as the Dox Equiv. concentration of formulations resulting in 50% growth inhibition compared with a negative control, buffer-treated cells.

[6] = tested on: AsPC-1 pancreatic cancer cells; assay: In vitro cytotoxicity (MTS, 72 h) AsPC-1; format: cell-based, human; conditions: 72 h incubation, Dox Equiv. concentration
Description: as §2

[7] = tested on: BxPC-3 pancreatic cancer cells; assay: In vitro cytotoxicity (MTS, 72 h) BxPC-3; format: cell-based, human; conditions: 72 h incubation, Dox Equiv. concentration
Description: as §2

[8] = Tissue biodistribution in C26 tumor-bearing BALB/c mice; format: in vivo
From the text: The tissue concentration of Dox.

[9] = tested on: MIA PaCa-2 pancreatic tumor xenografts; assay: In vivo tumor regression, MIA PaCa-2 xenograft model; parameters: species or system nude BALB/c mice
Description: In vivo tumor regression For in vivo tumor implantation, C26 cells at 5×10^5 cells in 30 μL Minimum Essential Medium (MEM) (Invitrogen, Carlsbad, CA) and MIA PaCa-2 cells at 2×10^6 cells in 50 μL 10:90 v/v MEM: Matrigel matrix (Corning Inc, Corning, New York) were inoculated in the right flank of normal and athymic nude BALB/c mice, respectively. Tumor cells were allowed to grow until the tumor volume, calculated as π/6×length×width^2, reached 75-100 mm^3 for C26 tumors and 100-125 mm^3 for MIA PaCa-2 tumors. Tumor bearing mice were then treated with ABD-Dox at 10 and 20 mg Dox Equiv.kg^−1 BW, AlDox at 20 mg Dox Equiv.kg^−1 BW, and free Dox at 10 mgkg^−1 BW. Tumor volumes and body weights were monitored for 100 days after treatment and mice displaying excessive tumor volume (>[…]), body weight loss (>15%), or ill health were euthanized. Tumor growth and survival data were analyzed by GraphPad Prism software. Survival curves were generated with the Kaplan-Meier method and compared with the log-rank (Mantel-Cox) test. Tumor growth data were compared with a paired one-way ANOVA followed by Tukey-Kramer (Tukey's) post-hoc test. P<0.05 was considered as statistically significant.
For in vivo tumor regression studies, a single dose of ABD-Dox was injected via tail vein at 10 mg Dox Equiv.kg^−1 BW (MTD of free Dox) and 20 mg Dox Equiv.kg^−1 BW (MTD of ABD-Dox) in separate cohorts of BALB/c mice with s.c. C26 tumors or nude mice with s.c. MIA Paca-2 tumors. Free Dox was injected at its MTD of 10 mgkg-1 BW, and AlDox was injected at 20 mg Dox Equiv.kg^−1 BW, a dose that was reported to be safe in previous studies. All animals were injected when the tumors were 75-100 mm; in size for C26 tumors and 100-125 mm^3 for MIA PaCa-2 tumors.

ABD-Dox (GLAEAKVLANRELDKYGVSDYYKNLINNAKTVEGVKALIDEILAALPCGGCGGCGGCGG)
ΔH [1]: -28.1 kJ/mol
ΔS [1]: 41.5 Jmol^−1K^−1
n (binding stoichiometry) ([1]; independent binding site model): 1.03 and 1.0
binding to HSA by mobility shift [2]: confirmed binding
binding to MSA by mobility shift [3]: confirmed binding
drug released ([4]; pH 5.0, over 24 h, 37° C.): about 70%
Dox release ([4]; pH 7.4, 37° C.): negligible; also recorded: low, basal level of release
IC50 [5]: 1.4 µM and 1.41 µM
IC50 [6]: 15.2 µM
IC50 [7]: 8.9 µM
AUC in other tissues compared to free Dox ([8]; 2 to 72 h): No significant difference
AUC in the spleen, lower than free Dox ([8]; 2 to 72 h): ~50%
AUC in the tumor, fold greater than free Dox ([8]; 2 to 72 h): 16 fold
concentration in kidneys compared to free Dox ([8]; 2 h): lower concentration
concentration in liver compared to free Dox ([8]; 2 h): lower concentration
concentration in muscle compared to free Dox ([8]; 2 h): lower concentration
concentration in spleen compared to free Dox ([8]; 2 h): lower concentration
concentration in heart compared to free Dox ([8]; 24 h): higher concentration
concentration in liver compared to free Dox ([8]; 24 h): higher concentration
concentration in lungs compared to free Dox ([8]; 24 h): higher concentration
concentration in muscle compared to free Dox ([8]; 24 h): higher concentration
concentration in spleen compared to free Dox ([8]; 24 h): lower concentration
accumulation in kidneys compared to free Dox ([8]; 72 h): higher
accumulation in liver compared to free Dox ([8]; 72 h): higher
accumulation in lungs compared to free Dox ([8]; 72 h): higher
accumulation in muscle compared to free Dox ([8]; 72 h): higher
tumor accumulation, fold greater than free Dox ([8]; 72 h): ~120 fold
survival compared with free Dox ([9]; 10 mg Dox Equiv.kg^−1 BW): No significant difference
survival compared with AlDox ([9]; 20 mg Dox Equiv.kg^−1 BW): No significant difference
survival compared with free Dox ([9]; 20 mg Dox Equiv.kg^−1 BW): significantly longer survival
tumor regression compared with AlDox ([9]; 20 mg Dox Equiv.kg^−1 BW): superior tumor regression efficacy
tumor-free period compared with AlDox ([9]; 20 mg Dox Equiv.kg^−1 BW, 100-day span): longer tumor-free period
mice showing tumor disappearance ([9]; by day 15 after treatment, 20 mg Dox Equiv.kg^−1 BW): all
tumor recurrence in tumor-eradicated mice ([9]; throughout the 100 day course of study, 20 mg Dox Equiv.kg^−1 BW): 25%
